Experimental data taken from the nanobody polyreactivity screen of Harvey et al. (2022).

Assay: yeast display, Sf9 membrane polyspecificity reagent, FACS + sequencing; frameworks hold sequencing errors
Summary of the method: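 After 36–48 hours of galactose induction, yeast (Saccharomyces cerevisiae BJ5465) displaying a synthetic nanobody library were stained at 4 °C for 1 hour with 10% biotinylated, detergent-solubilized Sf9 membrane reagent. Streptavidin microbeads enriched the stained cells before FACS sorting into low and high (top ~1%) gates on anti-HA and streptavidin fluorescence. Each clone's polyreactivity label reflects its gate of origin.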

| Sequence | polyreactivity (PSR sort gate) |
| --- | --- |
| QVQLVESGGGLVQAGGSLRLSCAASGITFYSNAMGWYRQAPGKERELVATITRGGSTYYADSVKGRFTISRDNAKNTVYLQMNSLKPEDTAVYYCAADYSYRGREYGYWGQVTQVTVSS | low polyreactivity |
| QVQLVESGGGLVQAGGSLRLSCAASGSTFAANAMGWYRPAPGKERELVAAITSSGGSTYYADSVKGRFTISRDNAKNTVYLQMNSLKPEDTAVYYCNKDIERYVRIYDSWGQGTQVTVSS | low polyreactivity |
| QVQLVESGGGLVQAGGSLRLSCAASGSTFVRYAMGWYRQAPGKEREFVAAISKRGGSTYYADSVKGRFTISRDIAKNTVYLQMNSLKPEDTAVYYCATYLLRDAPGLHQVGYWGQGTQVTVSS | high polyreactivity |
| QVQLVESGGGLVQAGGSLRLSCAASGITIFGYAMGWYRQAPRTERELVAAINYSGDSTYYADSVKGRFTISRDNAKNTVYLQMNSLKPEDTAVYYCAADVRPYYSAYRGRYYYWGQGTQVTVSS | high polyreactivity |
| QVQLVESGGGLLQAGGSLRVSCAASGRTFLRYAMGWSIKAPGKERELVAGIDSSGGNTYYADSVKGRFTISRDTAKKYVYLQINSLKPEDTAVYYCAPRRSCKYRGGYYWGQGTQVTVSS | high polyreactivity |
| QVQLVESGGGLVQAGGSLRLSCAASGSTFKRNAMGWYRQAPGKERELVAAISWSGGSTYYADSVKGRFTISRDNAKNTVYLQMNSLKPEDTAVYYCNADHPFPQYEGGSWGQGTQVTVSS | low polyreactivity |
| QVQLVESGGGLVQAGGSLRLICAASGSNFGSNAMGWYRQAPGKETEFVAVITWRVGVTYYADSVKGRFTISRDNAKNTVYLQMNSLKPEDTAVYYCNVDWKVYGAPDYRIAWKYDYWGQGTQVTVSS | low polyreactivity |
| QVHLVESGRGLVQAGGSLRLSCAASGIIFYDYSMGWYRQAPGKERELVAAISWDGVSSYYADSVKGRFTISRDNAKNTVYLQMNSLKPEATAVYYCAARAVTDDDYEFDDWGQGTQVTVSS | low polyreactivity |
| QVQLVESGGGLVQAGGSLRLSCAASGRIFAYYAMGWYRQAPGKERELVAAITSRGGRTYYADSVKGRFTISRDNAKNTVYLQMNSLKPEDTAVYYCAAKGRPDGKYDYWGQGTQVTVSS | high polyreactivity |
| QVHHVESGGGLVQAGGSLRLSCADSGSIFTYYAMGWYRQAPGKERDLVAAINSGGRTNYADSVKGRFTISRDNAKNTVYLQMNSLKPVDTAVYYCANYGVLQYGYWGQGTQVTVSS | low polyreactivity |
| QVQLVESWGGLVQAGGSLRLSCAASGRTFAYYAMRWYRQAPGKERELVAAISSGGRTNYADSVKGRFTISRDNAKNTVYLQMNSLKPEDTAVYYCARKASYQIYNGQYGGFGYGYWGQGTQVTVSS | high polyreactivity |
| QVQLVESGGGLVQAGGSLRLSCAASGPTFWRNAMGWYRQAPGKEREFVASISRSGGSTYYADSVKGRFTISRDNAKNTVYLQMNSLKPEDTAVYYCAALGVRGYRGPGGQDYNSWGQGTQVTVSS | high polyreactivity |
| QVQLVESGGGLVQAGGSLRLSCAASGSTFVPYAMGWSSQAPGKERELVADISWSGGSTYYADSVKVRFTISRDNAKNTVYLQMNSLKPEDTAVYYCAARSIYKSKYDYWGQGTQVTVSS | high polyreactivity |
| QVHLVESGGRLVQAGGSLRLSCAASGFTFSYYAMGWYRQAPGKERELVASISRSVNTYYADSVKGRFTISRDNAKNTVYLQMNSLKTEDTAVYYCAAKRISYYSYNFDYWGQGTQVTVSS | high polyreactivity |
| QVQLVESVGGLVQAGGSLRLSCAASGFIFYRYAMGWYRKAPGKEWEFVAAINYSATSTYYADSVKGRFTISRDNAKNTVYLQMNSLKPEDTAVYYCAAKRVRRLSYETKYDYWGQGTQVTVSS | high polyreactivity |
| QVQLVESGGGLVQAGGSLRLSCAASGLTFWYYAMGWYRQAPGKERELVARITRSGVGTYYADSVKGRFTISRDNAKNTVYLQMNSLKPEDTAVYYCNARYQYSWVRYGYDYWGQGTQVTVSS | high polyreactivity |

| Sequence | polyreactivity (PSR sort gate) |
| --- | --- |
| QVQLVESGGGLVQAGGSLRLSCAASGFTFYGYAMAWYRQAPGTERELVAAITRRGGNTYYADSVKGRFTISRDNAKNTVYLQMNSLKPEDTAVYYCNAVLRYGHGPYQKGDYWGQGSQVTVSS | high polyreactivity |
| QVQLVESGGGLVQAGGSRRLSCAASGSTFRYNTMGWYRQAPGKERDLVAAITGGGGSTYYADSVKGRFTISRDNAKNTVYLQMNSLKPEDTAVYYCAKRHWYDCYVSSYTTRYDYWGQGTQVTVSS | low polyreactivity |
| QVQLVESGGGLVQAGGSLRLSCAASGCTFKYYTMGWYRQAPGKERELGAAINWRGGTTYYADSVKGRFTISRDNAKNTVYLQMNSLKPEDTAVYYSAKVNGPYRGGGYSRFDYWGQGTQVTVST | high polyreactivity |
| QVQLVESGGGLVQAGGSLRLSCAATGFTFYTYAMGWYRQATGKETELVADISSGGSTNYADSVKGRFRISRDNAKNTVYLQMNSLIPEDTAVYYCSDDYYFLDWYDYWGQGTQVTVSS | low polyreactivity |
| QVQLVESGGGLVQAGGSLRLSCAASGSIFWVNAMGWYRQAPGKERELVAAITWSAGSTYYADSVKGRFTISRDNAKNTVYLQMNSLKPEDTAVYYCAAGGAWYYWTLDYWGQGTQVTVSS | low polyreactivity |
| QVQLVESGGGLVQAGGSLRLSCAASGNIFSDYTMGWYRQAPGEERELVAAISGEGGTTYNADSVKGRFTISRDNAKNTVYLQMNRLKPEDPAVYYCAADGYYHAYDQFFIVYYEYDYWGQGTQVTVSS | low polyreactivity |
| QVQLVESGGGLVQAGGSLRLSCAASGRTLLSPNAMGWYRQAPGKARELVAVISWSDGSTYYADSVKGRFTISRDNANNTVYLQMNSLKPEDTAVYYSAASDPFEASQYKYDYWGQGTQVTVSS | low polyreactivity |
| QVQLVESGGGLVQAGGSLRLTCAASGRIFPRNTMGWYRQAPGKERELVAAISVSGGSTYYADSVKGRFTNSRDNAKNTVYLQMNSLKPEDTAVYYWAARSARLEYYYWGQGTQVTVSS | high polyreactivity |
| QVQLVESGGGLVQAGGSLRLSCAASGNTFGPYDMGWYRQAPGKERELVAGITSGGSTYYADSVKGRFTISRDNAKNTVYLQMNSLKPEDTAVYYCAADYYLWVYWYDYWGQGTQVTVSS | high polyreactivity |
| QVQLEESGGGLVQAGGSLRLSCAASGRNFTYNTMGWYRQAPGKERELVAAITSGGSTYYADSVKGRFTSSRDNAKNTVYLQMNSLKPEDTAVYYCAKRSWAYTDYFVSEYYWGQGTQVTVSS | high polyreactivity |
| QVQLVESGGGLVQAGGSLRLSCAASGLIFRLYAMGWYRQAPGKERELVAALSISGGSTYYADSVKGRFTLSRDNAKNTVYLQMNSLKPEDTAVYYCAARYYRGGPYYKYDYWGQGTQVTVSS | high polyreactivity |
| QVQLVESGGGLVQAGGSLRLSCAASGSTFGSNAMGWYRQAPGKERELVAAITYSGGRTYYADSVKGRFTISRDNAKNTVYLQMNSLKPEDTAVYYCAATFGFFYYQYDYWGQGTQVTVSS | low polyreactivity |
| QVQLVESGAGLVQAGGSLRLSCAASGSTFSRYAMGWYRQAPGKERELVAAISSRGGSTYYADSVKGRFTISRDNAKNTVYLQMNSLKPEDTAVYYCNALTSYQNHVYPYDYWGQGTQVTVSS | high polyreactivity |
| QVQLVESGGGLVQAGGSLRLSCAASGFTFDYNAMGWYRQAPGKERELVAAISNTGDSTYYADSVKGRFTISRDNAKNTVYLQMNSLKPEDTAVYYCAATSVPRYYYWGQGTQVTVSS | low polyreactivity |
| QVQLVESVGGLVQAGGRLRLSCAASGSIFLYNAMGWYRQAPGKERELVAVINGRGGTYYADSVKGRFTISRDNAKNTVYLQMNSLKPEDTAVYYCATGYPPSAGYDSVRFEDRDSWGQGTQVTVSS | low polyreactivity |
